This assay has as its target human TrkB receptor (overexpressed on TrkB-NFAT-bla CHO-K1 reporter cells) (human) (UniProt Q16620). Description: cell-based or functional assay.

For 1 substance, EC50 of beta-lactamase reporter response in TrkB-NFAT-bla CHO-K1 cells results are on record in patent US20230000998A1.

Chain of human TrkB receptor (overexpressed on TrkB-NFAT-bla CHO-K1 reporter cells) (human) (Q16620 32-822): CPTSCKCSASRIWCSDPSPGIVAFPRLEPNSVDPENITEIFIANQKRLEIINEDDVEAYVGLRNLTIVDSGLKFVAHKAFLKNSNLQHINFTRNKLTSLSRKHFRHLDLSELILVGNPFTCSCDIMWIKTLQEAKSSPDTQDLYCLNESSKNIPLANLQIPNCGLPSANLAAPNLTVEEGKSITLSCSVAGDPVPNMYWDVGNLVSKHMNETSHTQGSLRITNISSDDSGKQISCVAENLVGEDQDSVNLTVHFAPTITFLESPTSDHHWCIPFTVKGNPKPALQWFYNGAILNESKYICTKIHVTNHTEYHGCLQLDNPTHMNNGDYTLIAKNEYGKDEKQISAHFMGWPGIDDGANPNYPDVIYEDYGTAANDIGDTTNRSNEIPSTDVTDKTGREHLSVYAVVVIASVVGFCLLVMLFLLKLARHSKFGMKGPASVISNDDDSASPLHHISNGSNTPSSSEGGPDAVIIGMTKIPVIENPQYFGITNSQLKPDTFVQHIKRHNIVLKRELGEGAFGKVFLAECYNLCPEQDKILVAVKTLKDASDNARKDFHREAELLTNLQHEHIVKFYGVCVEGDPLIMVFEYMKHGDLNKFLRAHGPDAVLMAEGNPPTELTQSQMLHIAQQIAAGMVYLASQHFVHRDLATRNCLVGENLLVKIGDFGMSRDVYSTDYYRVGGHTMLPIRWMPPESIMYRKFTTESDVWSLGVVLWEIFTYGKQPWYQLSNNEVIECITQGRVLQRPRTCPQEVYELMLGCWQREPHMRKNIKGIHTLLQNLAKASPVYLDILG

Substance “BDNF (brain derived neurotrophic factor; Peprotech) (from UniProt P23560 129-247) (ligand)” came in with an EC50 of beta-lactamase reporter response in TrkB-NFAT-bla CHO-K1 cells of 0.055 nM.
